Assay results taken from paper PMC4635569 (2015).

Biological target: human C3d (human, UniProt P01024 1002-1303)
Assay: SPR

Sequence of human C3d (P01024 1002-1303): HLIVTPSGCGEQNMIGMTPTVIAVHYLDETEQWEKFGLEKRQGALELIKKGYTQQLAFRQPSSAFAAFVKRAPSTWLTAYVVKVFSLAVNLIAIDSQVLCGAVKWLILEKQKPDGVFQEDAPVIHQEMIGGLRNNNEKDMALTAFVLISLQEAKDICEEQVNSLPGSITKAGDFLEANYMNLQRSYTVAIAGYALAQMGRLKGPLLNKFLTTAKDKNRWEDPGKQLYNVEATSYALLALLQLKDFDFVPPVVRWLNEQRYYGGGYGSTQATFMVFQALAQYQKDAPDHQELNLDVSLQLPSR

B1: (D39)PspCN:FH complex (plasma-derived FH) (complex)
chain 1: EDCNELPPRRNTEILTGSWSDQTYPEGTQAIYKCRPGYRSLGNVIMVCRKGEWVALNPLRKCQKRPCGHPGDTPFGTFTLTGGNVFEYGVKAVYTCNEGYQLLGEINYRECDTDGWTNDIPICEVVKCLPVTAPENGKIVSSAMEPDREYHFGQAVRFVCNSGYKIEGDEEMHCSDDGFWSKEKPKCVEISCKSPDVINGSPISQKIIYKENERFQYKCNMGYEYSERGDAVCTESGWRPLPSCEEKSCDNPYIPNGDYSPLRIKHRTGDEITYQCRNGFYPATRGNTAKCTSTGWIPAPRCTLKPCDYPDIKHGGLYHENMRRPYFPVAVGKYYSYYCDEHFETPSGSYWDHIHCTQDGWSPAVPCLRKCYFPYLENGYNQNYGRKFVQGKSIDVACHPGYALPKAQTTVTCMENGWSPTPRCIRVKTCSKSSIDIENGFISESQYTYALKEKAKYQCKLGYVTADGETSGSITCGKDGWSAQPTCIKSCDIPVFMNARTKNDFTWFKLNDTLDYECHDGYESNTGSTTGSIVCGYNGWSDLPICYERECELPKIDVHLVPDRKKDQYKVGEVLKFSCKPGFTIVGPNSVQCYHFGLSPDLPICKEQVQSCGPPPELLNGNVKEKTKEEYGHSEVVEYYCNPRFLMKGPNKIQCVDGEWTTLPVCIVEESTCGDIPELEHGWAQLSSPPYYYGDSVEFNCSESFTMIGHRSITCIHGVWTQLPQCVAIDKLKKCKSSNLIILEEHLKNKKEFDHNSNIRYRCRGKEGWIHTVCINGRWDPEVNCSMAQIQLCPPPPQIPNSHNMTTTLNYRDGEKVSVLCQENYLIQEGEEITCKDGRWQSIPLCVEKIPCSQPPQIEHGTINSSRSSQESYAHGTKLSYTCEGGFRISEENETTCYMGKWSSPPQCEGLPCKSPPEISHGVVAHMSDSYQYGEEVTYKCFEGFGIDGPAIAKCLGEKWSHPPSCIKTDCLSLPSFENAIPMGEKKDVYKAGEQVTYTCATYYKMDGASNVTCINSRWTGRPTCRDTSCVNPPTVQNAYIVSRQMSKYPSGERVRYQCRSPYEMFGDEEVMCLNGNWTEPPQCKDSTGKCGPPPPIDNGDITSFPLSVYAPASSVEYQCQNLYQLEGNKRITCRNGQWSEPPKCLHPCVISREIMENYNIALRWTAKQKLYSRTGESVEFVCKRGYRLSSRSHTLRTTCWDGKLEYPTCAKR
chain 2: ATENEGSTQAATSSNMAKTEHRKAAKQVVDEYIEKMLREIQLDRRKHTQNVALNIKLSAIKTKYLRELNVLEEKSKDELPSEIKAKLDAAFEKFKKDTLKPGEK
Kd: 2000 nM
